Two molecules from patent US8624002B2, “Prostaglandin E2 binding proteins and uses thereof” (AbbVie, Inc., priority 2008, dated 2014) can be followed below.

In data set [1] the test system is carrageenan-induced paw edema. The data set can be described thus: Carrageenan-induced footpad edema model. Type of data set: in vivo, C57.BL/6 mice. The note with it: 3 mg/kg, p.o. The procedure: Carrageenan-Induced Footpad Edema is an acute rodent model of innate immune function. The in vivo efficacy of mouse anti-PGE2 antibody 2B5-8.0 is assessed in a carragenan-induced paw edema model. The induction of paw inflammation with carrageenan is performed similarly as previously described (Joseph P. Portanova, et al. J. Exp. Med. 184: 883-891 (1996)). Intradermal (ID) injection of an inflammatory agent causes a rapid influx of neutrophils and fluid edema which peaks at approximately 4 hours, followed by an influx of macrophages and monocytes which peaks at approximately 48 hours. C57.BL/6 mice (8-10-week-old, Jackson Laboratories, Bar Harbor, Me.) were injected ID in the rear footpad with 30 μL of either PBS (left) or λ-carrageenen (Sigma Aldrich, St. Louis, Mo.) in PBS (right) at a concentration of 5.0 mg/mL (150 μg/mouse). Rear footpad thickness was measured by Dyer spring caliper model #310-119 at baseline (time=0), and 4 hours post carrageenan challenge. Significant difference for paw thickness was determined by comparing mean paw swelling for each treatment group to vehicle in a Student's two-tailed t-test. Mice were given a dose titration of an anti-PGE2 antibody (2B5-8.0) intraperitonially (IP) 18 hours prior to carrageenan challenge, or Indomethacin, PO 2 hours prior to challenge. The endpoint measured was the difference in paw swelling (edema) between right and left paws 4 hours after treatment.
On the technique in general: The carrageenan paw model is a standard test of acute inflammation.

A short description of data set [2]: ^3H-PGE2 competition ELISA (prostaglandin selectivity). Type of data set: binding. As to the method:
Alternatively, prostaglandin selectivity was determined using a ^3H-PGE2 competition ELISA. Plates were coated with 50 μL/well of 5 μg/ml of goat anti-human IgG (Fc) (Thermo Scientific # 31170, Hudson, N.H.) or goat anti-mouse IgG (Fc) (Thermo Scientific # 31125, Hudson, N.H.) in PBS and incubated overnight at 4° C. The following day plates were flicked and blotted dry. Plates were blocked with 200 μL/well of Superblock (Thermo Scientific # 37515, Hudson, N.H.), 1 hour at room temperature. Plates were flicked and blotted dry. Monoclonal antibodies were diluted to 0.04 μg/ml in PBST (Abbott Bioresearch Center, Worcester, Mass.)/10% Superblock and 50 μL of each was added to each well (2 ng/well) of the pre-blocked ELISA plate and incubated for 1 hour at room temperature. Wells were washed 3 times with PBS/0.1% Tween-20. ^3H-PGE2 (Perkin Elmer # NET-428, Waltham, Mass.) was diluted in PBST/10% Superblock to 6 nM (2× stock). Each prostaglandin (Cayman Chemicals, Ann Arbor, Mich.) was prepared in PBST+10% Superblock at various concentrations ranging from 2000 μM (2× stock) to 0.00004 μM (2×). Equal volumes of the ^3H-PGE2 solution and of each prostaglandin dilution were mixed. Fifty microliters of this mixture was then added to each well of the plate and incubated for 1 hour at room temperature. Wells were washed manually 6 times with PBST/10% Superblock and 50 μL of scintillation fluid (Perkin Elmer # 6013621, Waltham, Mass.) added to each well. Plates were read using a TopCount reader (Perkin Elmer, Waltham, Mass.) with a 5 minute count delay. IC50 number was determined using GraphPad Prism 5 (GraphPad Software, La Jolla, Calif.). The cross reactivity index was then calculated by IC50 of PGE2/IC50 of other prostaglandin(s)
(In general: An ELISA detects its analyte on a solid surface through an enzyme-linked reagent.)

For data set [3], the system named is PGE2 induced Ca++ influx in HEK293 Gα16 cells stably transfected with human EP4 receptor. In words: EP4 bioassay: PGE2 induced Ca++ flux (FLIPR). Type of data set: cell-based. The note with it: PGE2 25 pm; read-out: IC50 (pM) @ PGE2 25 pm Cellular Potency in EP4 assay. As to the method: The ability of anti-PGE2 antibody to inhibit cellular response of PGE2 in vitro was determined in a Ca^++ flux assay in HEK293 Gα16 cells (Abbott Bioresearch Center, Worcester, Mass.) stably transfected with human EP4 receptor. In brief, an expression plasmid encoding one of the four human PGE2 receptors, EP4, and an expression plasmid encoding Gα16, were co-transfected into human embryonic kidney cell line 293 cells (ATCC# CRL1573, Manassas, Va.). The stable clones co-expressing both human EP4 and Gα16 protein were selected using standard methods (Joseph Sambrook and David W. Russell. Molecular Cloning: A Laboratory Manual Publisher. Published by Cold Spring Harbor Laboratory Press, 2001) and used for the EP4 bioassay. The HEK293 Gα16 cells were plated in black/clear poly-D-lysine plates (Corning #3667, Corning, N.Y.) and incubated with a Ca^++-sensitive dye (Molecular Devices, Sunnyvale, Calif.) for 90 minutes. Stock PGE2 (in 200 proof ethanol) was diluted with FLIPR buffer [containing 1×HBSS (Invitrogen Carlsbad, Calif.), 20 mM HEPES (Invitrogen Carlsbad, Calif.), 0.1% BSA (Sigma, St. Louis, Mo.) and 2.5 mM Probenecid (Sigma, St. Louis, Mo.)]. Anti-PGE2 antibodies or isotype matched control antibodies were also pre-diluted in FLIPR buffer. 25 μl of PGE2 or pre-incubated PGE2/antibody mixture was added to the wells pre-plated with cells. The dose response of PGE2 was determined on a serial titration of PGE2 and using FLIPR1 or Tetra (Molecular Devices, Sunnyvale, Calif.) and EC50 was determined using GraphPad Prism 5 (GraphPad Software, La Jolla, Calif.). […] Ca^++ flux was monitored using FLIPR1 and data was analyzed using GraphPad Prism 5 (GraphPad Software, La Jolla, Calif.).

A short description of data set [4]: Capillary zone electrophoresis. Type of data set: physicochemical. The settings on record: running buffer pH 5.5; compared with Hu2B5.2, Hu2B5.4, Hu2B5.6, Hu2B5.8. From the text:
Capillary zone electrophoresis is a capillary electrophoresis method in which the capillary is filled with buffer and the separation mechanism is based on differences in electrophoretic mobility of the analyte through the buffer. The electrophoretic mobility of a molecule is related to the charge-to-size ratio. A Beckman-Coulter ProteomeLab PA 800 (Beckman Coulter, Fullerton, Calif.) was used for the CZE analysis. A neutral capillary (eCAP neutral, 56 cm total length, 50 μm I. D. Beckman-Coulter, P/N 477441, Fullerton, Calif.) was used. The method used a 30.2 cm capillary with a detection window 20.2 cm from the sample introduction inlet. The running buffer was 100 mM EACA (6-Aminocaproic acid, Sigma A7824-100 G, St. Louis, Mo.) with 0.1% MC (from 1% Methylcellulose solution, Convergent Bioscience, cat# 101876, Toronto, ON, Canada), pH 5.5.

Data set [5] can be described thus: Pharmacokinetics of hu2B5.7 and hu2B5.4 in Sprague-Dawley rats. Type of data set: in vivo. The note with it: male Sprague-Dawley rats, IV 4 mg/kg. The procedure: Pharmacokinetic parameters were calculated by non-compartmental analysis using WinNonlin.
MSD streptavidin plates (Meso Scale Discovery) were washed with phosphate buffered saline containing 0.05% Tween-20 (diluted from 10×PBS, Abbott Bioresearch Center, Media Room, Worcester, Mass. and Tween-20, Sigma, St. Louis, Mo.). Plates were blocked with 250 μL/well blocking solution (MSD Block, Meso Scale Discovery, diluted to 3% final concentration in PBS) for 1 hour, covered, with shaking (600 rpm) at room temperature. After washing, 70 μL of biotinylated PGE2 (Prostoglandin E2-biotinamide, Cayman Chemical, Ann Arbor, Mich., cat# 10006987, lot# 190831-191028; 0.01 ug/mL in assay buffer) was added to each well. The plates were covered and incubated with shaking (600 rpm) for 1 hour at room temperature.
Prior to analysis, rat serum samples were thawed on ice, mixed gently, and centrifuged at 14,000 rpm for 3 minutes at 4° C. in an eppendorf centrifuge. Standard curve and control samples were prepared in rat serum. Tecan Evo automated liquid handling station was used to dilute standard curve, high, medium, and low controls, and serum samples in assay buffer, keeping 1% final serum concentration constant. MSD plates were washed again and study samples, standard curve samples and blanks, as well as high, medium, and low controls were added (70 μL/well). The plates were covered, and incubated for 1 hour with shaking (600 rpm) at room temperature.
After incubation, the MSD plates were washed, and 70 μL sulfo-tagged goat anti-human IgG (Meso Scale Discovery; diluted to 1 ug/mL in assay buffer) was added to each well. The MSD plates were covered, and incubated with shaking (600 rpm) for 1 hour at room temperature, then the plates were washed and developed with 2× Read Buffer (Meso Scale Discovery). Chemilumeniscence was measured within ten minutes on the MSD Sector Imager 6000.
Standard curves were analyzed using four-parameter logistic fit and sample concentrations were calculated by XLfit4 software version 2.2.1 Build 16, ([…].). Pharmacokinetic parameters were calculated for each animal using Winonlin software version 5.0.1 (Pharsight Corporation, Mountain View, Calif.) by noncompartmental analysis.
Surgically altered jugular vein cannulated, JVC) male Sprague-Dawley Rats (approximately seven weeks old, weighing 240-390 grams) were purchased from Charles River Laboratories (Wilmington, Mass.). The animals were housed in rooms maintained at constant temperature and humidity under a 12 hour light/dark cycle, fed with normal rodent chow and were allowed food and water ad libitum. Hydration and clinical conditions of the animals were monitored daily.
0.2 mL blood samples were collected from the rats at various timepoints, allowed to clot for 30 minutes at room temperature, centrifuged for 3 minutes at 13,200 rpm, the serum transferred to eppendorf tubes and stored frozen at −80° C.

Data set [6] is described as follows: Biotin-PGE2 ELISA (PGE2-biotinamide binding to captured IgG).

With `COc1ccc2c(c1)c(CC(=O)O)c(C)n2C(=O)c1ccc(Cl)cc1` [Indomethacin, reference compound], the “Δ Paw Swelling (mm)” value in data set [1] (2 hours prior to challenge, 4 hours post challenge) worked out at 0.486 ± 0.03 mm. In data set [1] (paw swelling 4 hours post challenge), the % Inhibition (as a rule, the relative decrease from the control value, in per cent) is 57 ± 3.5%.

B1: Hu2B5.7: humanized 2B5-8.0; VH SEQ ID NO 72, VL SEQ ID NO 73 (antibody, V domains shown)
VH: EVQLVQSGAEVKKPGASVKVSCKASGYTFTKYWLGWVRQAPGQGLEWMGDIYPGYDYTHYNEKFKDRVTLTTDTSTSTAYMELRSLRSDDTAVYYCARSDGSSTYWGQGTLVTVSS
VL: DVLMTQTPLSLPVTPGEPASISCTSSQNIVHSNGNTYLEWYLQKPGQSPQLLIYKVSNRFSGVPDRFSGSGSGTDFTLKISRVEAEDVGVYYCFQVSHVPYTFGGGTKVEIKR
For the molecule B1, the “prostaglandin binding specificity in ^3H-PGE2 competition ELISA” value in data set [2] is given as “demonstrated specificity to PGE2”. Moreover, in data set [3], the half-maximal inhibitory concentration (IC50) (as a rule, the point on the concentration scale where inhibition reaches its midpoint) came to 78 pM. The “migration in capillary zone electrophoresis” value in data set [4] was “migrated more basic”. In data set [5], the “AUC0-∞” value was determined as 9900 ± 1800 µg·h/mL; the “CL” value came to 9.84 ± 1.7 mL/day/kg; the MRT – broadly, the average time that molecules of a dose stay in the body – worked out at 16.8 ± 1.0 days; the “T½” value was determined as 12.4 days. Also, in data set [5], the volume of distribution (Vss) (as a rule, the apparent volume that relates the amount in the body to the concentration in plasma or blood) is 0.165 ± 0.0198 L/kg and the volume of distribution (Vz) (commonly the apparent volume that relates the amount in the body to the concentration in plasma or blood) stood at 0.176 ± 0.0308 L/kg. Besides, in data set [6], a half-maximal response (EC50) required 79 pM.
